According to paper PMC9804626 (Molecular Microbiology, 2022):

Key:
Test in all cases: co-IP
[1] = biological target: MpgA‐F (Streptococcus pneumoniae D39)
[2] = biological target: T1, RodZ‐L‐FLAG^3 (Streptococcus pneumoniae D39)
T1 sequence (Q8DMX7 1-276, looked up): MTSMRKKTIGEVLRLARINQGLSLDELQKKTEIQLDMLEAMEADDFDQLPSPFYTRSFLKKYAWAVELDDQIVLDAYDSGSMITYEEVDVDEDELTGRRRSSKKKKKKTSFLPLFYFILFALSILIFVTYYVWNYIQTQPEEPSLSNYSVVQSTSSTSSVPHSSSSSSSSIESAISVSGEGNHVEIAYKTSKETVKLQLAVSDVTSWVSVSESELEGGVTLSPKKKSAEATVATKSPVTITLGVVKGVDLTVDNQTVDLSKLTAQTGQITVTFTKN

[3] = biological target: MreC‐L‐F3 (Streptococcus pneumoniae D39) (UniProt Q8DMY2)
[4] = biological target: PBP1a‐F (Streptococcus pneumoniae D39)
[5] = biological target: T2, RodZ‐FLAG (Streptococcus pneumoniae D39)
T2 sequence (Q8DMX7 1-276, looked up): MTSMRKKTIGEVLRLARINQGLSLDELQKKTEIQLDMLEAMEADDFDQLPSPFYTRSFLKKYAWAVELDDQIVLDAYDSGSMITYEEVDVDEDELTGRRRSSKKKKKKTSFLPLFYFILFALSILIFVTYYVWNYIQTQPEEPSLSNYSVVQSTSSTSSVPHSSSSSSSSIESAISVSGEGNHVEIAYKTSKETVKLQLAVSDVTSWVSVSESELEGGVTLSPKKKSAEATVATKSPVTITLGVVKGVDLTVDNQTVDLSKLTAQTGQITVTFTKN

[6] = biological target: KhpB‐L‐F3 (Streptococcus pneumoniae D39) (UniProt Q8CY87)
MreC‐L‐F3 = biological target: T3, MreC‐L‐F3 (Streptococcus pneumoniae D39, UniProt Q8DMY2 1-272)
T3 sequence (looked up): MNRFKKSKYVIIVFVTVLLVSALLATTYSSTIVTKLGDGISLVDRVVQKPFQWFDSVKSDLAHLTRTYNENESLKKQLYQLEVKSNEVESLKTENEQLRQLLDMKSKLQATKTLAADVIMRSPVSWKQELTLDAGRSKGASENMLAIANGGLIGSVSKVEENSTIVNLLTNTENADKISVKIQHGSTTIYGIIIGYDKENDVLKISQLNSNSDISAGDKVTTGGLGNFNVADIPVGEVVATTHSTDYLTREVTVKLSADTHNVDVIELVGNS

FtsA (from UniProt A0A0H2ZPT5 1-457) (natural protein)
ratio of prey protein band/background [1]: 4.5

FtsW‐L‐GFP (from UniProt A0ACD7PRK7 1-409) (natural protein)
ratio of prey protein band/background [2]: 4.5

GpsB (natural protein)
ratio of prey protein band/background [1]: 38
ratio of prey protein band/background [3]: 26
ratio of prey protein band/background [4]: 16
ratio of prey protein band/background [5]: 24
ratio of prey protein band/background [2]: 51

MpgA‐HA (natural protein)
ratio of prey protein band/background [2]: 8.6

RodZ‐HA^3 (natural protein)
ratio of prey protein band/background [6]: 1.4
ratio of prey protein band/background [4]: 8.6

StkP (natural protein)
ratio of prey protein band/background [1]: 34
ratio of prey protein band/background [3]: 14
ratio of prey protein band/background [4]: 28
ratio of prey protein band/background [2]: 23

aPBP1a (natural protein)
ratio of prey protein band/background [1]: 22
ratio of prey protein band/background [3]: 41
ratio of prey protein band/background [5]: 11
ratio of prey protein band/background [2]: 61

bPBP2b (natural protein)
ratio of prey protein band/background [1]: 13
ratio of prey protein band/background [3]: 47
ratio of prey protein band/background [4]: 13
ratio of prey protein band/background [5]: 26
ratio of prey protein band/background [2]: 63

bPBP2x (natural protein)
ratio of prey protein band/background [1]: 12
ratio of prey protein band/background [3]: 10
ratio of prey protein band/background [4]: 15
ratio of prey protein band/background [5]: 4.8
ratio of prey protein band/background [2]: 8.7

B1: MreC (natural protein)
chain: MNRFKKSKYVIIVFVTVLLVSALLATTYSSTIVTKLGDGISLVDRVVQKPFQWFDSVKSDLAHLTRTYNENESLKKQLYQLEVKSNEVESLKTENEQLRQLLDMKSKLQATKTLAADVIMRSPVSWKQELTLDAGRSKGASENMLAIANGGLIGSVSKVEENSTIVNLLTNTENADKISVKIQHGSTTIYGIIIGYDKENDVLKISQLNSNSDISAGDKVTTGGLGNFNVADIPVGEVVATTHSTDYLTREVTVKLSADTHNVDVIELVGNS
ratio of prey protein band/background [1]: 22
ratio of prey protein band/background [4]: 19
ratio of prey protein band/background [5]: 24
ratio of prey protein band/background [2]: 100

B2: DivIVA (natural protein, UniProt Q8CWP9 1-262, looked up)
chain: MPITSLEIKDKTFGTRFRGFDPEEVDEFLDIVVRDYEDLVRANHDKNLRIKSLEERLSYFDEIKDSLSQSVLIAQDTAERVKQAAHERSNNIIHQAEQDAQRLLEEAKYKANEILRQATDNAKKVAVETEELKNKSRVFHQRLKSTIESQLAIVESSDWEDILRPTATYLQTSDEAFKEVVSEVLGEPIPAPIEEEPIDMTRQFSQAEMEELQARIEVADKELSEFEAQIKQEVETPTPVVSPQVEEEPLLIQLAQCMKNQK
ratio of prey protein band/background [1]: 53
ratio of prey protein band/background [4]: 6.8
ratio of prey protein band/background [5]: 7.9
ratio of prey protein band/background [2]: 18
ratio of prey protein band/background (MreC‐L‐F3): 4.3

B3: aPBP2a (natural protein, UniProt A0A0H2ZMF9 1-731, looked up)
chain: MKLDKLFEKFLSLFKKETSELEDSDSTILRRSRSDRKKLAQVGPIRKFWRRYHLTKIILILGLSAGLLVGIYLFAVAKSTNVNDLQNALKTRTLIFDREEKEAGALSGQKGTYVELTDISKNLQNAVIATEDRSFYKNDGINYGRFFLAIVTAGRSGGGSTITQQLAKNAYLSQDQTVERKAKEFFLALELSKKYSKEQILTMYLNNAYFGNGVWGVEDASKKYFGVSASEVSLDQAATLAGMLKGPELYNPLNSVEDSTNRRDTVLQNMVAAGYIDKNQETEAAEVDMTSQLHDKYEGKISDYRYPSYFDAVVNEAVSKYNLTEEEIVNNGYRIYTELDQNYQANMQIVYENTSLFPRAEDGTFAQSGSVALEPKTGGVRGVVGQVADNDKTGFRNFNYATQSKRSPGSTIKPLVVYTPAVEAGWALNKQLDNHTMQYDSYKVDNYAGIKTSREVPMYQSLAESLNLPAVATVNDLGVDKAFEAGEKFGLNMEKVDRVLGVALGSGVETNPLQMAQAYAAFANEGLMPEAHFISRIENASGQVIASHKNSQKRVIDKSVADKMTSMMLGTFTNGTGISSSPADYVMAGKTGTTEAVFNPEYTSDQWVIGYTPDVVISHWLGFPTTDENHYLAGSTSNGAAHVFRNIANTILPYTPGSTFTVENAYKQNGIAPANTKRQVQTNDNSQTDDNLSDIRGRAQSLVDEASRAISDAKIKEKAQTIWDSIVNLFR
ratio of prey protein band/background (MreC‐L‐F3): 20
